Tested on: recalcified plasma
Assay: one stage clotting (coagulation) assay of full-length TF mutants in CHO cell lysates
Type: biochemical
Details: for reduction in specific functional activity (loss of function) relative to wild-type TF: coagulant activity normalized to antigen concentration, full-length mutants expressed in CHO cells; for reduction in tissue factor procoagulant cofactor activity when compared to wt-TF: summary statement in the description
Method: The full-length TF mutants prepared above were analyzed for function by coagulation assay. […] Coagulation factor deficient plasmas were purchased from George King Bio-medical. The chromogenic substrate, Spectrozyme FXa, was from American Diagnostica Inc. (Greenwich, Conn.).
An alternative approach was to use a polyvalent antibody purified by affinity for capturing TF followed by detection with the TF8-5G9 monoclonal antibody described above.
Initiation of coagulation by wild-type and mutant TF in recalcified plasma was determined after lysis of cell pellets from 2×10^6 cells/ml for each expressed full-length mutant with 15 mM octyl-glucopyranoside in HBS for 15 minutes at 37C. followed by a 3-fold dilution.
All data represented are based on at least three independent determinations performed in duplicate.

B1: Ser-16: human tissue factor mutant with alanine substituted for Ser-16 (protein, UniProt P13726 33-295, looked up, variant S16A)
Tissue factor: SGTTNTVAAYNLTWKATNFKTILEWEPKPVNQVYTVQISTKSGDWKSKCFYTTDTECDLTDEIVKDVKQTYLARVFSYPAGNVESTGSAGEPLYENSPEFTPYLETNLGQPTIQSFEQVGTKVNVTVEDERTLVRRNNTFLSLRDVFGKDLIYTLYYWKSSSSGKKTAKTNTNEFLIDVDKGENYCFSVQAVIPSRTVNRKSTDSPVECMGQEKGEFREIFYIIGAVVFVVIILVIILAISLHKCRKAGVGQSWKENSPLNVS
  reduction in specific functional activity (loss of function) relative to wild-type TF: more than 70%
  reduction in tissue factor procoagulant cofactor activity when compared to wt-TF: ≥ 75%

B2: Asn-199: human tissue factor alanine mutant at Asn-199 (protein, UniProt P13726 33-295, looked up, variant N199A)
Tissue factor: SGTTNTVAAYNLTWKSTNFKTILEWEPKPVNQVYTVQISTKSGDWKSKCFYTTDTECDLTDEIVKDVKQTYLARVFSYPAGNVESTGSAGEPLYENSPEFTPYLETNLGQPTIQSFEQVGTKVNVTVEDERTLVRRNNTFLSLRDVFGKDLIYTLYYWKSSSSGKKTAKTNTNEFLIDVDKGENYCFSVQAVIPSRTVARKSTDSPVECMGQEKGEFREIFYIIGAVVFVVIILVIILAISLHKCRKAGVGQSWKENSPLNVS
  reduction in specific functional activity (loss of function) relative to wild-type TF: 30-80%
  reduction in tissue factor procoagulant cofactor activity when compared to wt-TF: ≥ 75%

B3: Val-67: human tissue factor mutant with alanine substituted for Val-67 (protein, UniProt P13726 33-295, looked up, variant V67A)
Tissue factor: SGTTNTVAAYNLTWKSTNFKTILEWEPKPVNQVYTVQISTKSGDWKSKCFYTTDTECDLTDEIVKDAKQTYLARVFSYPAGNVESTGSAGEPLYENSPEFTPYLETNLGQPTIQSFEQVGTKVNVTVEDERTLVRRNNTFLSLRDVFGKDLIYTLYYWKSSSSGKKTAKTNTNEFLIDVDKGENYCFSVQAVIPSRTVNRKSTDSPVECMGQEKGEFREIFYIIGAVVFVVIILVIILAISLHKCRKAGVGQSWKENSPLNVS
  reduction in specific functional activity (loss of function) relative to wild-type TF: 53%

B4: Thr-17: human tissue factor mutant with alanine substituted for Thr-17 (protein, UniProt P13726 33-295, looked up, variant T17A)
Tissue factor: SGTTNTVAAYNLTWKSANFKTILEWEPKPVNQVYTVQISTKSGDWKSKCFYTTDTECDLTDEIVKDVKQTYLARVFSYPAGNVESTGSAGEPLYENSPEFTPYLETNLGQPTIQSFEQVGTKVNVTVEDERTLVRRNNTFLSLRDVFGKDLIYTLYYWKSSSSGKKTAKTNTNEFLIDVDKGENYCFSVQAVIPSRTVNRKSTDSPVECMGQEKGEFREIFYIIGAVVFVVIILVIILAISLHKCRKAGVGQSWKENSPLNVS
  reduction in specific functional activity (loss of function) relative to wild-type TF: more than 70%
  reduction in tissue factor procoagulant cofactor activity when compared to wt-TF: ≥ 75%

B5: Val-198: human tissue factor alanine mutant at Val-198 (protein, UniProt P13726 33-295, looked up, variant V198A)
Tissue factor: SGTTNTVAAYNLTWKSTNFKTILEWEPKPVNQVYTVQISTKSGDWKSKCFYTTDTECDLTDEIVKDVKQTYLARVFSYPAGNVESTGSAGEPLYENSPEFTPYLETNLGQPTIQSFEQVGTKVNVTVEDERTLVRRNNTFLSLRDVFGKDLIYTLYYWKSSSSGKKTAKTNTNEFLIDVDKGENYCFSVQAVIPSRTANRKSTDSPVECMGQEKGEFREIFYIIGAVVFVVIILVIILAISLHKCRKAGVGQSWKENSPLNVS
  reduction in specific functional activity (loss of function) relative to wild-type TF: 30-80%

B6: Arg-200/Lys-201: human tissue factor alanine double mutant at Arg-200 and Lys-201 (protein, UniProt P13726 33-295, looked up, variant R200A K201A)
Tissue factor: SGTTNTVAAYNLTWKSTNFKTILEWEPKPVNQVYTVQISTKSGDWKSKCFYTTDTECDLTDEIVKDVKQTYLARVFSYPAGNVESTGSAGEPLYENSPEFTPYLETNLGQPTIQSFEQVGTKVNVTVEDERTLVRRNNTFLSLRDVFGKDLIYTLYYWKSSSSGKKTAKTNTNEFLIDVDKGENYCFSVQAVIPSRTVNAASTDSPVECMGQEKGEFREIFYIIGAVVFVVIILVIILAISLHKCRKAGVGQSWKENSPLNVS
  reduction in specific functional activity (loss of function) relative to wild-type TF: 30-80%

B7: Phe-147: human tissue factor alanine mutant at Phe-147 (protein, UniProt P13726 33-295, looked up, variant F147A)
Tissue factor: SGTTNTVAAYNLTWKSTNFKTILEWEPKPVNQVYTVQISTKSGDWKSKCFYTTDTECDLTDEIVKDVKQTYLARVFSYPAGNVESTGSAGEPLYENSPEFTPYLETNLGQPTIQSFEQVGTKVNVTVEDERTLVRRNNTFLSLRDVAGKDLIYTLYYWKSSSSGKKTAKTNTNEFLIDVDKGENYCFSVQAVIPSRTVNRKSTDSPVECMGQEKGEFREIFYIIGAVVFVVIILVIILAISLHKCRKAGVGQSWKENSPLNVS
  reduction in specific functional activity (loss of function) relative to wild-type TF: 30-50%

B8: S16-T17-K20: human tissue factor triple mutant with alanines at positions 16, 17 and 20 (protein, UniProt P13726 33-295, looked up, variant S16A T17A K20A)
Tissue factor: SGTTNTVAAYNLTWKAANFATILEWEPKPVNQVYTVQISTKSGDWKSKCFYTTDTECDLTDEIVKDVKQTYLARVFSYPAGNVESTGSAGEPLYENSPEFTPYLETNLGQPTIQSFEQVGTKVNVTVEDERTLVRRNNTFLSLRDVFGKDLIYTLYYWKSSSSGKKTAKTNTNEFLIDVDKGENYCFSVQAVIPSRTVNRKSTDSPVECMGQEKGEFREIFYIIGAVVFVVIILVIILAISLHKCRKAGVGQSWKENSPLNVS
  reduction in specific functional activity (loss of function) relative to wild-type TF: 98%

B9: K65-D66-K68: human tissue factor triple alanine mutant at positions 65, 66 and 68 (protein, UniProt P13726 33-295, looked up, variant K65A D66A K68A)
Tissue factor: SGTTNTVAAYNLTWKSTNFKTILEWEPKPVNQVYTVQISTKSGDWKSKCFYTTDTECDLTDEIVAAVAQTYLARVFSYPAGNVESTGSAGEPLYENSPEFTPYLETNLGQPTIQSFEQVGTKVNVTVEDERTLVRRNNTFLSLRDVFGKDLIYTLYYWKSSSSGKKTAKTNTNEFLIDVDKGENYCFSVQAVIPSRTVNRKSTDSPVECMGQEKGEFREIFYIIGAVVFVVIILVIILAISLHKCRKAGVGQSWKENSPLNVS
  reduction in specific functional activity (loss of function) relative to wild-type TF: 70%

B10: Asp-145: human tissue factor alanine mutant at Asp-145 (protein, UniProt P13726 33-295, looked up, variant D145A)
Tissue factor: SGTTNTVAAYNLTWKSTNFKTILEWEPKPVNQVYTVQISTKSGDWKSKCFYTTDTECDLTDEIVKDVKQTYLARVFSYPAGNVESTGSAGEPLYENSPEFTPYLETNLGQPTIQSFEQVGTKVNVTVEDERTLVRRNNTFLSLRAVFGKDLIYTLYYWKSSSSGKKTAKTNTNEFLIDVDKGENYCFSVQAVIPSRTVNRKSTDSPVECMGQEKGEFREIFYIIGAVVFVVIILVIILAISLHKCRKAGVGQSWKENSPLNVS
  reduction in specific functional activity (loss of function) relative to wild-type TF: 30-50%

B11: Tyr-71: human tissue factor mutant with alanine substituted for Tyr-71 (protein, UniProt P13726 33-295, looked up, variant Y71A)
Tissue factor: SGTTNTVAAYNLTWKSTNFKTILEWEPKPVNQVYTVQISTKSGDWKSKCFYTTDTECDLTDEIVKDVKQTALARVFSYPAGNVESTGSAGEPLYENSPEFTPYLETNLGQPTIQSFEQVGTKVNVTVEDERTLVRRNNTFLSLRDVFGKDLIYTLYYWKSSSSGKKTAKTNTNEFLIDVDKGENYCFSVQAVIPSRTVNRKSTDSPVECMGQEKGEFREIFYIIGAVVFVVIILVIILAISLHKCRKAGVGQSWKENSPLNVS
  reduction in specific functional activity (loss of function) relative to wild-type TF: 98%

B12: Phe-19: human tissue factor mutant with alanine substituted for Phe-19 (protein, UniProt P13726 33-295, looked up, variant F19A)
Tissue factor: SGTTNTVAAYNLTWKSTNAKTILEWEPKPVNQVYTVQISTKSGDWKSKCFYTTDTECDLTDEIVKDVKQTYLARVFSYPAGNVESTGSAGEPLYENSPEFTPYLETNLGQPTIQSFEQVGTKVNVTVEDERTLVRRNNTFLSLRDVFGKDLIYTLYYWKSSSSGKKTAKTNTNEFLIDVDKGENYCFSVQAVIPSRTVNRKSTDSPVECMGQEKGEFREIFYIIGAVVFVVIILVIILAISLHKCRKAGVGQSWKENSPLNVS
  reduction in specific functional activity (loss of function) relative to wild-type TF: more than 70%

B13: Val-146: human tissue factor alanine mutant at Val-146 (protein, UniProt P13726 33-295, looked up, variant V146A)
Tissue factor: SGTTNTVAAYNLTWKSTNFKTILEWEPKPVNQVYTVQISTKSGDWKSKCFYTTDTECDLTDEIVKDVKQTYLARVFSYPAGNVESTGSAGEPLYENSPEFTPYLETNLGQPTIQSFEQVGTKVNVTVEDERTLVRRNNTFLSLRDAFGKDLIYTLYYWKSSSSGKKTAKTNTNEFLIDVDKGENYCFSVQAVIPSRTVNRKSTDSPVECMGQEKGEFREIFYIIGAVVFVVIILVIILAISLHKCRKAGVGQSWKENSPLNVS
  reduction in specific functional activity (loss of function) relative to wild-type TF: 30-50%

B14: S39-T40-S42: human tissue factor triple mutant with alanines at positions 39, 40 and 42 (protein, UniProt P13726 33-295, looked up, variant S39A T40A S42A)
Tissue factor: SGTTNTVAAYNLTWKSTNFKTILEWEPKPVNQVYTVQIAAKAGDWKSKCFYTTDTECDLTDEIVKDVKQTYLARVFSYPAGNVESTGSAGEPLYENSPEFTPYLETNLGQPTIQSFEQVGTKVNVTVEDERTLVRRNNTFLSLRDVFGKDLIYTLYYWKSSSSGKKTAKTNTNEFLIDVDKGENYCFSVQAVIPSRTVNRKSTDSPVECMGQEKGEFREIFYIIGAVVFVVIILVIILAISLHKCRKAGVGQSWKENSPLNVS
  reduction in specific functional activity (loss of function) relative to wild-type TF: 43%
